Data published in patent US20150274820A1 (ESBATECH AN ALCON BIOMEDICAL RESEARCH UNIT, published 2015).
Positions count from the first letter of the chain named. Names and notes keep the numbering of the source.

B1: 435-min (scFv)
scFv: EIVMTQSPSTLSASVGDRVIITCQASQSIGSSLAWYQQKPGKAPKLLIYTAANLASGVPSRFSGSGSGAEFTLTISSLQPDDFATYYCQNFATSDTVTFGQGTKLTVLGGGGGSGGGGSGGGGSGGGGSEVQLVESGGGLVQPGGSLRLSCAASGFSLNTNYWMCWVRQAPGKGLEWVSCMYTGSYNRAYYASWAKGRFTISRDNSKNTLYLQMNSLRAEDTAVYYCAKGSNWYSDLWGQGTLVTVSS
notes: VL and VH tied by name; also called Protein Nr; 944
B2: 610-min (scFv)
scFv: EIVMTQSPSTLSASVGDRVIITCQASQSISSWLSWYQQKPGKAPKLLIYQASTLASGVPSRFSGSGSGAEFTLTISSLQPDDFATYYCQNNYGFRSYGGAFGQGTKLTVLGGGGGSGGGGSGGGGSGGGGSEVQLVESGGGLVQPGGSLRLSCAASGIDFSGAYYMGWVRQAPGKGLEWVSYIDYDGDRYYASWAKGRFTISRDNSKNTLYLQMNSLRAEDTAVYYCAKSDYSSGWGTDIWGQGTLVTVSS
notes: VL and VH tied by name; also called Protein Nr
B3: 610-max (scFv)
scFv: B2 scFv with A69T, A154T, S181G, R203K, N205T, L210V, K229R
notes: as for B2
B4: 511max_min (scFv)
scFv: EIVMTQSPSTLSASVGDRVIITCQASQSINIWLSWYQQKPGKAPKLLIYRASTLASGVPSRFSGSGSGTEFTLTISSLQPDDFATYYCQANYAYSAGYGAAFGQGTKLTVLGGGGGSGGGGSGGGGSGGGGSEVQLVESGGGLVQPGGSLRLSCAASGFSLNTYYMNWVRQAPGKGLEWVSIIAPDDTTYYASWAKSRFTISRDNSKNTLYLQMNSLRAEDTAVYYCAKSGDTTAWGADIWGQGTLVTVSS
notes: also called Protein Nr; 905
B5: 511min_max (scFv)
scFv: B4 scFv with L33C, T69A, A155T, A156V, S181G, F199S, N205T, L210V, K229R
notes: also called Protein Nr; 904
B6: 375-min (scFv)
scFv: EIVMTQSPSTLSASVGDRVIITCQASENINIWLSWYQQKPGKAPKLLIYQASKLASGVPSRFSGSGSGAEFTLTISSLQPDDFATYYCQNNYSYNRYGAPFGQGTKLTVLGGGGGSGGGGSGGGGSGGGGSEVQLVESGGGLVQPGGSLRLSCAASGFSFTTTDYMCWVRQAPGKGLEWVSCILAGDGSTYYANWAKGRFTISRDNSKNTLYLQMNSLRAEDTAVYYCAKSDPASSWSFALWGQGTLVTVSS
notes: VL and VH tied by name; also called Protein Nr; 857
B7: 375-max (scFv)
scFv: B6 scFv with A69T, E70Q, A154K, S181G, I202G, R204K, N206T, L211V, K230R
notes: VL and VH tied by name; also called Protein Nr; 873
B8: 567-min (scFv)
scFv: EIVMTQSPSTLSASVGDRVIITCQADQSIYIWLSWYQQKPGKAPKLLIYKASTLESGVPSRFSGSGSGAEFTLTISSLQPDDFATYYCQNNAHYSTNGGTFGQGTKLTVLGGGGGSGGGGSGGGGSGGGGSEVQLVESGGGLVQPGGSLRLSCAASGFSLSDYYMCWVRQAPGKGLEWVSCLDYFGSTDDASWAKGRFTISRDNSKNTLYLQMNSLRAEDTAVYYCAKTDDSRGWGLNIWGQGTLVTVSS
notes: also called Protein Nr; 884
B9: 578-max FW1.4_DHP (scFv)
scFv: EIVMTQSPSTLSASVGDRVIITCQASEIIHSWLAWYQQKPGKAPKLLIYLASTLASGVPSRFSGSGSGTQFTLTISSLQPDDFATYYCQNVYLASTNGANFGQGTKLTVLGGGGGSGGGGSGGGGSGGGGSEVQLVESGGGSVQPGGSLRLSCTASGFSLTDYYYMTWVRQAPGKGLEWVGFIDPDDDPYYATWAKGRFTISRDTSKNTVYLQMNSLRAEDTATYYCAGGDHNSGWGLDIWGQGTTVTVSS
notes: Tied by name only; also called Protein Nr; 960
B10: 578min_max V89L (scFv)
scFv: B9 scFv with T69A, Q70E, S142L, V210L, T224V, T246L
notes: the VH entry already carries V89L; tied by name; also called Protein Nr; 980
B11: 578min_max T84N (scFv)
scFv: B9 scFv with T69A, Q70E, S142L, T205N, T224V, T246L
notes: the VH entry already carries T84N; tied by name; also called Protein Nr
B12: 578-max-min (scFv)
scFv: B9 scFv with S142L, T154A, G181S, T205N, V210L, T224V, G229K, T246L
notes: also called Protein Nr; 902
B13: 578min_max T84N_V89A (scFv)
scFv: B9 scFv with T69A, Q70E, S142L, T205N, V210A, T224V, T246L
notes: the VH entry already carries the changes; tied by name; also called Protein Nr; 1009
B14: 578min_max V89A (scFv)
scFv: B9 scFv with T69A, Q70E, S142L, V210A, T224V, T246L
notes: the VH entry already carries V89A; tied by name; also called Protein Nr; 978
B15: 534-min C-His (scFv)
scFv: EIVMTQSPSTLSASVGDRVIITCQASQSINIWLSWYQQKPGKAPKLLIYKESTLASGVPSRFSGSGSGAEFTLTISSLQPDDFATYYCQNNYDSGNNGFPFGQGTKLTVLGGGGGSGGGGSGGGGSGGGGSEVQLVESGGGLVQPGGSLRLSCAASGFSLSYYYMSWVRQAPGKGLEWVSIIGPGDYTDYASWAKGRFTISRDNSKNTLYLQMNSLRAEDTAVYYCAKGDDNSGWGEDIWGQGTLVTVSS
notes: VL and VH tied by name; His tag only named (C-His); also called Protein Nr; 807; not shown: C-terminal His tag

Key:
[1] = biological target: T1, recombinant human VEGF165 (human, UniProt P15692 27-191); experiment: Biacore SPR, VEGF immobilized, pH 7.4
T1 construct: mature; Isoform VEGF165 of the entry; also called hVEGF165; hVEGF
T1 sequence (P15692 other isoform, or with tags, fused parts or gaps): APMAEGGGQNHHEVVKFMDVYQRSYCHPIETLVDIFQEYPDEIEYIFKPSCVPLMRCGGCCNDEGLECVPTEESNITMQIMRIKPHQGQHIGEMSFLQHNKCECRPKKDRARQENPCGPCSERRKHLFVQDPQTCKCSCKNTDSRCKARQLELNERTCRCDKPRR
Description: (§1) In this example, the Biacore-binding ability of scFvs was tested and the binding affinity was measured using the exemplary surface plasmon resonance method with BIAcore™-T100. The VEGF proteins, tested for binding by these scFv candidates, in this example and later examples include purified Escherichia coli-expressed recombinant human VEGF₁₆₅ (PeproTech EC Ltd.), recombinant human VEGF₁₂₁ (PeproTech EC Ltd.), recombinant human VEGF₁₁₀ (ESBATech AG), recombinant murine VEGF₁₆₄ (PeproTech EC Ltd.), recombinant rat VEGF₁₆₄ (Biovision), recombinant rabbit VEGF₁₁₀ (ESBATech AG), and recombinant human PLGF (PeproTech EC Ltd.). For the surface plasmon resonance experiment, carboxymethylated dextran biosensor chips (CM4, GE Healthcare) were activated with N-ethyl-N′-(3-dimethylaminopropyl) carbodiimide hydrochloride and N-hydroxysuccinimide according to the supplier's instructions. Each of the 6 different VEGF forms, as exemplified above, was coupled to 1 of the 4 different flow cells on a CM4 sensor chip using a standard amine-coupling procedure. […] The 4th flow cell of each chip was treated similarly except no proteins were immobilized prior to blocking, and the flow cell was used as in-line reference. […] Dissociation of the anti-VEGF scFv from the VEGF on the CM4 chip was allowed to proceed for 10 min at 25° C. Sensorgrams were generated for each anti-VEGF scFv sample after in-line reference cell correction followed by buffer sample subtraction. The apparent dissociation rate constant (kd), the apparent association rate constant (kₐ) and the apparent dissociation equilibrium constant (KD) were calculated using one-to-one Langmuir binding model with BIAcore T100 evaluation Software version 1.1.

[2] = biological target: T1, recombinant human VEGF165; experiment: Biacore SPR, VEGF immobilized, pH 5
Description: as §1

[3] = biological target: T1, recombinant human VEGF165; experiment: Biacore SPR, VEGF immobilized, pH 5; remark: listed apart in the source
Description: as §1, with “1.1. […]” for “1.1.”

[4] = biological target: recombinant murine VEGF164 (mouse) (UniProt Q00731); experiment: Biacore SPR, VEGF immobilized, pH 5
[5] = biological target: recombinant rat VEGF164 (rat) (UniProt P16612); experiment: Biacore SPR, VEGF immobilized, pH 5
recombinant human PLGF = biological target: T2, recombinant human PLGF (human, UniProt P49763-2 19-149, limits assumed); experiment: Biacore SPR, PlGF immobilized, pH 5
T2 construct: Negative control; also called PIGF
T2 sequence (looked up): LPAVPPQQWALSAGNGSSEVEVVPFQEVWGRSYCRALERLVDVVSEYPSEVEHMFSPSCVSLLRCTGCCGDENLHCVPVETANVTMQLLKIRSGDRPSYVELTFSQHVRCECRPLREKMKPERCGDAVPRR
Description: as §1

[6] = biological target: T1, recombinant human VEGF165; experiment: Biacore SPR, VEGF immobilized, pH 5; remark: listed apart in the source
Description: as §1

[7] = biological target: T3, recombinant human VEGF110 (human, UniProt P15692-4 27-136, limits assumed); experiment: Biacore SPR, VEGF immobilized, pH 5
T3 construct: Made in house; also called hVEGF110
T3 sequence (looked up): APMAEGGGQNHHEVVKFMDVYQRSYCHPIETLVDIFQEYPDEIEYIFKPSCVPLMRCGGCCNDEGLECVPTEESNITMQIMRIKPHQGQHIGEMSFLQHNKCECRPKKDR
Description: as §1

[8] = biological target: T4, recombinant human VEGF121 (human, UniProt P15692 27-147); experiment: Biacore SPR, VEGF immobilized, pH 5
T4 construct: mature; Isoform VEGF121 of the entry; also called hVEGF121
T4 sequence (looked up): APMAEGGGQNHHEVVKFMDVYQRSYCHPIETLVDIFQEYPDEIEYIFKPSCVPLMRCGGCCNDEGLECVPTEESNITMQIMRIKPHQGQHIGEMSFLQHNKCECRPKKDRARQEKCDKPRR
Description: as §1

Row | Binder | kon [1] [M⁻¹ s⁻¹] | koff [2] [s⁻¹] | kon [2] [M⁻¹ s⁻¹] | Kd [3] [nM] | koff [3] [s⁻¹] | kon [3] [M⁻¹ s⁻¹] | also measured
1 | B1 | 495000 |  |  |  |  |  | koff [1]: 0.0143 s⁻¹
2 | B2 |  | 0.00265 | 251000 |  |  |  | 
3 | B3 | > 1e+08 | 0.000601 | 509000 |  |  |  | 
4 | B4 |  |  |  | 1.48 | 0.000754 | 511000 | 
5 | B5 |  |  |  | 0.278 | 0.000102 | 366000 | 
6 | B6 | > 1e+08 | 0.00501 | 927000 |  |  |  | 
7 | B7 | 5.09e+07 | 0.00655 | 2.44e+06 |  |  |  | koff [1]: 0.242 s⁻¹
8 | B8 | 1.11e+06 | 0.000461 | 2.01e+06 |  |  |  | koff [4]: 0.00035 s⁻¹; kon [4]: 2.06e+06 M⁻¹ s⁻¹; koff [5]: 0.00048 s⁻¹; kon [5]: 1.72e+06 M⁻¹ s⁻¹; binding result (recombinant human PLGF): no binding; koff [6]: 0.000461 s⁻¹; kon [6]: 2.01e+06 M⁻¹ s⁻¹; koff [7]: 3.82e-05 s⁻¹; kon [7]: 1.52e+06 M⁻¹ s⁻¹; koff [8]: 4.54e-05 s⁻¹; kon [8]: 1.89e+06 M⁻¹ s⁻¹; koff [1]: 0.0007 s⁻¹
9 | B9 |  |  |  | 0.266 | 0.000248 | 930000 | 
10 | B10 |  |  |  | 2.13 | 0.00187 | 875000 | 
11 | B11 |  |  |  | 0.971 | 0.0007 | 721000 | 
12 | B12 |  |  |  | 6.55 | 0.00883 | 1.35e+06 | 
13 | B13 |  |  |  | 0.615 | 0.000493 | 801000 | 
14 | B14 |  |  |  | 1.2 | 0.000612 | 509000 | 
15 | B15 |  | 0.00921 | 271000 |  |  |  | 
